± gives the standard deviation of the averaged measurements.
Tested on: ATP
Test: switch fluorescence ratio, 500 uM ATP over buffer (Cy3 cluster intensity, sum of 5 cycles each) (fold (ratio)); higher = stronger signal-on switching upon ATP binding; sequences stand for … in TCGTCGGCAGCGTCAGATGTGTATAAGAGACAGTTTTTTTTTTTTTTTTTTTTTTTTT…TC
Settings: aptamer strand: ATP DNA aptamer (quencher-CACCTGGGGGAGTATTGCGGAGGAAGG + anchor), 100 nM annealed; ATP concentration: 500 uM
How it was run: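 The fluorescence ratio divides summed target-cycle Cy3 intensity by summed buffer-cycle Cy3 intensity for each cluster and is averaged per switch-domain sequence. Cy3-labelled switching-strand clusters on a modified Illumina MiSeq flow-cell were annealed to 100 nM quencher-labelled ATP aptamer, then imaged in selection buffer and again after 15 min with 500 uM ATP at 22 °C. Five such cycles were run, with NaOH stripping and re-annealing between them, and clusters outside 100-1000 RFU were excluded.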
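Note: ATP exposure 15 min at 22 °C before imaging.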

Sequence	switch fluorescence ratio
AAACTGGGGG	1.012 ± 0.0032
GGGGCGTGTA	0.977 ± 0.029
GATGGGGGTC	1.21 ± 0.34
TTACGACGAC	2.21 ± 0.096
TGAGTTGGGG	0.967 ± 0.016
TTATTTGGGA	0.991 ± 0.043
TATTTCTTT	0.99 ± 0.026
TTTATGAGAC	1.02 ± 0.065
ACGTGGAGGA	1.054 ± 0.0031
ATGGGTCGGA	1.01 ± 0.053
CGTAGGGCAG	0.991 ± 0.049
GTTGTCGTAT	0.974 ± 0.051
ACATTCGGGC	1.02 ± 0.041
TGATGGATAG	0.995 ± 0.047
TTATCGTTGG	1 ± 0.031
TATGGAGTTT	1.01 ± 0.013
TGGTAAAAAA	0.959 ± 0.016
TAAATGAATT	1.05 ± 0.096
TACGTAATTT	1.17 ± 0.018
GGGTATACCG	1.018 ± 0.0017
AGGGGGGAGA	0.994 ± 0.026
GGGGTGGGGG	1.01 ± 0.039
TGAGTGAGGG	1.01 ± 0.018

Sequence	switch fluorescence ratio
GGGAAGGCGT	1.12 ± 0.14
CAACAACTTC	1.01 ± 0.0034
ACTTTTCTCT	1.02 ± 0.021
TCATCGCTTT	1.08 ± 0.021
AATCTTCATG	0.997 ± 0.044
TGTTATTTGT	0.975 ± 0.048
TGGAGTAGG	1.01 ± 0.025
CAGGAGGACT	1.02 ± 0.015
CGAAGGTAGG	0.9843 ± 0.0049
TCGTGGGGTA	0.9761 ± 0.007
GTGTACGTGG	1.008 ± 0.0057
ATTTAAGGGT	0.993 ± 0.032
AGGGATGTTA	0.991 ± 0.014
AAACACTGGG	0.9638 ± 0.0073
CAGGTGACGC	1.07 ± 0.014
ACGCCCTCCC	2.02 ± 1.2
CGGAAGCATT	1.44 ± 0.017
AGGCTTTTAT	1.005 ± 0.0078
GGCCAAGGGT	1.03 ± 0.0039
TCACACGGCG	1.13 ± 0.18
TAGGGTATGT	1.01 ± 0.018
AGGGGTGCCT	0.993 ± 0.013
TCTGGGTGCC	1.02 ± 0.055

Sequence	switch fluorescence ratio
GTAATAGTTT	1 ± 0.036
AAGAGGACGA	1.01 ± 0.028
GGGGTGTGAG	0.989 ± 0.017
TCGAGCCGAA	1.04 ± 0.019
AGAGGTAAT	1.09 ± 0.12
CGGATGTTGG	1.02 ± 0.12
GATTGGGTCC	1 ± 0.02
CGTAAGAGCT	1 ± 0.016
GCTCGAAAGA	1.008 ± 0.0024
AGTGAGCTGG	0.9733 ± 0.0031
CACCTGTCCG	1.06 ± 0.02
GAAAAAAATT	1.02 ± 0.024
ATATTTGGCC	0.974 ± 0.021
AGGAATAGCG	1.021 ± 0.0061
GGTGTCTCCC	1 ± 0.039
TTGAGGATTG	1 ± 0.018
TAGGATGAGT	0.99997 ± 0.00035
GTGGGGATTG	0.9379 ± 0.0016
GCTGGGTAAC	1.006 ± 0.0034
AATTAAGGTT	1.04 ± 0.03
GAGCTTTTTT	0.9986 ± 0.0034
AGGCCTCGCA	1.03 ± 0.039
TGGGCATATG	0.993 ± 0.014

Sequence	switch fluorescence ratio
GGATGCTGGT	1.04 ± 0.053
CAGATAGCAG	1.093 ± 0.0021
TGTATGGTTT	0.971 ± 0.048
CGGAAAAAAT	1.19 ± 0.19
TTTTAGGTCG	0.987 ± 0.013
CATGCTTGGC	1.01 ± 0.055
AGGTCCGGTG	1.031 ± 0.0096
TCATAGGTGG	1 ± 0.034
TTATTTAAAG	1.018 ± 0.0024
AAGCCCTAGC	0.976 ± 0.036
TCGTTTTCCC	1.08 ± 0.14
TCGTCGCAGG	1.1 ± 0.058
AGGTCATTGA	1 ± 0.021
AAATGTGTAG	0.977 ± 0.024
TCCTGTGGGA	1.007 ± 0.0053
CTCAGAAACA	1.02 ± 0.013
TCCGAAAGGG	1.052 ± 0.0062
GCTGCACGGG	1.01 ± 0.03
GGTTTGGGTG	0.995 ± 0.04
TCATTGAAGT	0.991 ± 0.008
TCAGGTACAT	1.07 ± 0.014
AATGTACCCA	1.09 ± 0.017
TTTTGCTTTC	1.14 ± 0.1

Sequence	switch fluorescence ratio
TTCCACGACT	1.02 ± 0.025
TTAGAGTTGT	0.999 ± 0.034
TCTACGGCGT	0.9991 ± 0.0059
TTTTACGCCT	1.02 ± 0.012
ATGTTTTGAA	0.9789 ± 0.005
TTTACGTCAG	1.013 ± 0.0034
TCGGGCTTTT	0.969 ± 0.026
TATCCATGGA	1.01 ± 0.026
ACATTATAAT	1.041 ± 0.0056
AAAAAAATCC	1.01 ± 0.07
GGGGTACACG	0.979 ± 0.027
AAATCCGGTT	1.008 ± 0.0028
TTTAACGGTG	1.02 ± 0.027
GTGGGGGTCT	0.972 ± 0.013
TCTTTCCTTC	1.04 ± 0.12
GGGGTTCGTT	1.01 ± 0.072
TCCATGTGTT	1.01 ± 0.037
GACACATCAA	1.048 ± 0.008
ATTTTGATAC	1.01 ± 0.044
CGCTTCGTGA	1.06 ± 0.059
CCGGATATGT	1.08 ± 0.046
CAAACTCCCA	1.16 ± 0.18
GGGGGCGTGG	1 ± 0.043

Sequence	switch fluorescence ratio
GCGGGCAGGA	1.02 ± 0.021
AAGGTTGACC	1.01 ± 0.021
TGTATTTTT	0.98586 ± 0.00097
ATCTTTTTGG	0.996 ± 0.024
CACTGCTTTT	0.992 ± 0.023
GGGAGTAGCA	1.02 ± 0.026
TGGTTTTATT	1.01 ± 0.043
AAATTTTTTT	0.996 ± 0.054
ACCCGAAGGG	0.948 ± 0.075
CGTTTATTGA	1.004 ± 0.0086
GGTTTTTGTA	0.995 ± 0.025
AGCGTCGTTC	1.03 ± 0.023
ATTTAAGGGG	0.9949 ± 0.0092
CCATCGTACC	1.3 ± 0.018
GGACGTGGGA	0.9944 ± 0.0036
AAGGTATTAG	0.9926 ± 0.0055
AGAGTGGAGG	1 ± 0.041
AAGCGTTGTG	0.9984 ± 0.008
TGATTCACTG	0.9907 ± 0.0075
TTGGACTCCG	1.14 ± 0.15
GGGCAAACAG	0.959 ± 0.029
TGTCTATTTT	1.019 ± 0.0033
TTTATGTTTT	0.965 ± 0.041

Sequence	switch fluorescence ratio
TTGGTGCGGG	0.98 ± 0.044
GAAATAGGG	0.983 ± 0.011
GTGTTGTTGT	0.998 ± 0.016
AGGGTCCTAC	1.02 ± 0.047
CTCGATAGGT	0.984 ± 0.028
TGACGGGGAT	1.25 ± 0.33
GGTATGTAAG	0.995 ± 0.02
AAAAGCTCGT	1 ± 0.05
AGCATTTATA	0.981 ± 0.016
AATGGGCTGA	0.971 ± 0.015
AGTGAATTTT	0.988 ± 0.064
TATAAGGTCC	0.98 ± 0.019
CGAGGTGGCG	0.958 ± 0.06
TATCATGTCG	0.986 ± 0.031
CATTTATGCG	0.989 ± 0.018
AATGGTTGGG	0.9989 ± 0.0078
GATAGTCTTG	0.985 ± 0.023
CGGAGTTGGA	1.04 ± 0.041
TGGGATTGTT	1 ± 0.035

— the supplement of paper PMC10126150
